Substrate in this data set: O=[N+]([O-])c1ccccc1O[C@@H]1O[C@H](CO)[C@H](O)[C@H](O)[C@H]1O
As to the kind of experiment: purified protein. Particulars: free enzyme, not displayed on spores, ONPG 0.83-20 mM, general assay printed as 20 mM potassium phosphate pH 6.0, 75 °C (spore assay). In kind it is biochemical, Geobacillus kaustophilus.

B1: Bsβ–Gal (Geobacillus kaustophilus) (protein)
chain: MNVLSSICYGGDYNPEQWPEEIWYEDAKLMQKAGVNLVSLGIFSWSKIEPSDGVFDFEWLDKVIDILYDHGVYINLGTATATTPAWFVKKYPDSLPIDESGVILSFGSRQHYCPNHPQLITHIKRLVRAIAERYKNHPALKMWHVNNEYACHVSKCFCENCAVAFRKWLKERYKTIDELNERWGTNFWGQRYNHWDEINPPRKAPTFINPSQELDYYRFMNDSILKLFLTEKEILREVTPDIPVSTNFMGSFKPLNYFQWAQHVDIVTWDSYPDPREGLPIQHAMMNDLMRSLRKGQPFILMEQVTSHVNWRDINVPKPPGVMRLWSYATIARGADGIMFFQWRQSRAGAEKFHGAMVPHFLNENNRIYREVTQLGQELKKLDCLVGSRIKAEVAIIFDWENWWAVELSSKPHNKLRYIPIVEAYYRELYKRNIAVDFVRPSDDLTKYKVVIAPMLYMVKEGEDENLRQFVANGGTLIVSFFSGIVDENDRVHLGGYPGPLRDILGIFVEEFVPYPETKVNKIYSNDGEYDCTTWADIIRLEGAEPLATFKGDWYAGLPAVTRNCYGKGEGIYVGTYPDSNYLGRLLEQVFAKHHINPILEVAENVEVQQRETDEWKYLIIINHNDYEVTLSLPEDKIYQNMIDGKCFRGGELRIQGVDVAVLREHDEAGKV
notes: full-length bgaB in pET-28a (PCR from pJS-cotY-bgaB), expressed in E. coli BL21(DE3), heat treatment and Ni-NTA, free enzyme; printed as tetrameric
As for B1, the Michaelis constant (Km) worked out at 2970 ± 50 µM.

A word on the Km: it is the substrate concentration at which the rate is half of its maximum.

Source of the values: publication PMC7926950, “Constructing an Efficient Bacillus subtilis Spore Display by Using Cohesin−Dockerin Interactions” (Molecules, 2021).
